Laboratory results: PMC2586147

Molecular target: K401-BIO-H6 R210K (Drosophila) (UniProt P17210)
Experiment: AUC

“K401 (from UniProt P17210 1-401) (domain or fragment)” gave a stoichiometry N of 2.

With “K401-BIO-H6 R210K (from UniProt P17210 1-401) (domain or fragment)” the stoichiometry N was 2.
